Sequences and labels used below:
B1: TatC with C-terminal hexahistidine tag, wild type (TatABC system) [E. coli] / TatB [E. coli] (parent)
chain 1: MFDIGFSELLLVFIIGLVVLGPQRLPVAVKTVAGWIRALRSLATTVQNELTQELKLQEFQDSLKKVEKASLTNLTPELKASMDELRQAAESMKRSYVANDPEKASDEAHTIHNPVVKDNEAAHEGVTPAAAQTQASSPEQKPETTPEPVVKPAADAEPKTAAPSPSSSDKP
chain 2: MSVEDTQPLITHLIELRKRLLNCIIAVIVIFLCLVYFANDIYHLVSAPLIKQLPQGSTMIATDVASPFFTPIKLTFMVSLILSAPVILYQVWAFIAPALYKHERRLVVPLLVSSSLLFYIGMAFAYFVVFPLAFGFLANTAPEGVQVSTDIASYLSFVMALFMAFGVSFEVPVAIVLLCWMGITSPEDLRKKRPYVLVGAFVVGMLLTPPDVFSQTLLAIPMYCLFEIGVFFSRFYVGKGRNREEENDAEAESEKTEE
B2: TatC with C-terminal hexahistidine tag, wild type (TatABC system) [E. coli] / TatA [E. coli] (parent)
chain 1: MGGISIWQLLIIAVIVVLLFGTKKLGSIGSDLGASIKGFKKAMSDDEPKQDKTSQDADFTAKTIADKQADTNQEQAKTEDAKRHDKEQV
chain 2: B1 chain 2

Six variants from publication PMC11178869 can be followed below.

Variants of B1 are the subject of the first assay. Put plainly: affinity purification (H6-tagged TatC) with SDS-PAGE/Western-blot band quantification. The following applies: eight replicates, read off a plot.
Consider chain 2 I50Y, for which the response worked out at 0.86 signal ratio.

chain 2 L189A: the response came out at 0.97 signal ratio. The same measure, in the same setting: with chain 2 Y154A the figure was 0.81 signal ratio.

In a further assay the parent is B2. Described as above. The settings on record: eight replicates, read off a plot.
In the case of chain 2 I50Y, the response stood at 1.3 signal ratio. Still for that read-out and setting: with chain 2 Y154A the figure was 1.6 signal ratio. Same read-out and setting: with chain 2 L189A the figure was 0.67 signal ratio.
